From the nanobody polyreactivity screen of Harvey et al. (2022) come the findings set out here.

A short description of the series: yeast display, Sf9 membrane polyspecificity reagent, FACS + sequencing; frameworks hold sequencing errors. Put shortly:
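Synthetic nanobody libraries on Saccharomyces cerevisiae BJ5465 were galactose-induced for 36–48 hours, stained 1 hour at 4 °C with 10% biotinylated, detergent-solubilized Sf9 membrane reagent and enriched on streptavidin microbeads. FACS then separated cells into low and high (top ~1%) gates by anti-HA (expression) and streptavidin (reagent binding) fluorescence. Genes were colony-PCR amplified, MiSeq 2 × 250 sequenced and CDR-length filtered. A clone's polyreactivity label is that of its gate of origin.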
On to “QVQLVESGGGLVQAGGSLRLSCAASGITFVRNALGWYRQAPGKEREFVAAISWSGGSTYYADSVKGRFTISRDNAKNTVYLQMNSLKPEDTAVYYCNAGSSYLSRFPLDYWGQGTQVTVSS”, for which the “polyreactivity (PSR sort gate)” value is “high polyreactivity”. Take “QVQLVESGGGLVQAGGSLRLSCAASGITFVRYAMGWYRQAPGKERELVAAISSGGRTIYADSVKGRFTISRDHANNTVFVHMNSLKPEDTAVYYCSKRRARSGQDYDYWGQGTQVTVSS”: the “polyreactivity (PSR sort gate)” value is given as “low polyreactivity”.

On to “QVQLVESGGGLVQAGGSLRLSCAASGITFVRYAMGWYRQAPGKERELVAAISSGGSTHYADSVKGRFTISRDNAKNTVYLQMNSLKPEDTAVYYCAAQWTESSLYRFGYLGQGTQVTVSS”, for which the “polyreactivity (PSR sort gate)” value is “high polyreactivity”.

Take “QVQLVESGGGLVQAGGSLRLSCAASGITFVSYAMGWYRQAPGKERELVAAISSWSGGTTYYADSVKGRFTISRDNAKNTVYLQMNSLKPEDTAVYYCAAVSFGSYRLGYWGQGTQVTVSS”: the “polyreactivity (PSR sort gate)” value is on record as “high polyreactivity”. Consider “QVQLVESGGGLVQAGGSLRLSCAASGITFVWNAMGWYRQAPGKERELVATISRGGVRTYYADSVKGRFTISRDNAKNTVYLQMNSLKPEDTAVYYCAADGSYVHWEYGYWGQGTQGTVSS”, for which the “polyreactivity (PSR sort gate)” value was “low polyreactivity”.

“QVQLVESGGGLVQAGGSLRLSCAASGITFVYYAMGWYRQAPGNERELVATIDRSGTSTYYADSVKGRFTISRDNAKNTVVLQMTSLKQEDTAVYDCNAHRYAFYQYYRRMDYWGKGTQVTVSS”: the “polyreactivity (PSR sort gate)” value was “high polyreactivity”. With “QVQLVESGGGLVQAGGSLRLSCAASGITFVYYDMGWYRQAPGKERELVAAISSDGSTYYADSVKGRFTISRDNAKNTVYLQMNSLKPEDSAVYYCAADYFNYRGYTYLGDYWGQCTQVTVSS”, the “polyreactivity (PSR sort gate)” value was “low polyreactivity”. For “QVQLVESGGGLVQAGGSLRLSCAASGITFWFNAMGWYRQAPGKERELVAAITSGVDTNYADSVKGRFTISRDNAKNTVYLQMNSLKPEDTAVYYCAAQGGRLKRGRTTSDYWGQGTQVTVSS”, the “polyreactivity (PSR sort gate)” value is recorded as “low polyreactivity”.

Consider “QVQLVESGGGLVQAGGSLRLSCAASGITFWHNTMGWYRQAPGKERELVAAISWTGGRTYYADSVKGRFTISRDNAKNTVNFQMNSLNPEDTAVNYCAADFSWTPSGNYDSWGQGTQVTVSS”, for which the “polyreactivity (PSR sort gate)” value is given as “low polyreactivity”. The value for “QVQLVESGGGLVQAGGSLRLSCAASGITFWKYAMGWYRQAPGKERELVAAISKSGGSTYYADSVKGRFTISRDNAKNTVYLQMNSLKPEDTAVYYCAAYPQFWYWDYNYWGQGTQVTVSS” was “high polyreactivity”; that for “QVQLVESGGGLVQAGGSLRLSCAASGITFWNAMGWYRQAPGKERELVAAITSSGGSTYYADSVKGRFTISRDNAKNTVYLQMNSLKPEDTAVYYCAADYGRTRYDMDYWGQGTQVTVSS” was “low polyreactivity”.

As for “QVQLVESGGGLVQAGGSLRLSCAASGITFWNNAMGWYRQAPGKERELVATISSNGGRTYYADSVKGRFTISRDNAKNSVYLQMNSLKPEDTAVYYCNAARRAYGYNYWGQGTQVTVSS”, the “polyreactivity (PSR sort gate)” value is on record as “low polyreactivity”. Consider “QVQLVESGGGLVQAGGSLRLSCAASGITFWPYAMGWYRQAPGKERELVAAISFIDGSTSYADSVKGRFTISRDNAKNTVYLQMNSLKPEDTAVYYCAAVIPGPSIWLYYYWGQGTQVTVSS”, for which the “polyreactivity (PSR sort gate)” value is reported as “low polyreactivity”.

For the sequence “QVQLVESGGGLVQAGGSLRLSCAASGITFWSNAMGWYRQAPGKERELVAAITSGGNTNYADSVKGRFTISRDNAKNTVYLQMNSLKPEDTAVYYCAKRWTAREPWRKGMGYWGQGTQVTVSS”, the “polyreactivity (PSR sort gate)” value is on record as “high polyreactivity”.

Take “QVQLVESGGGLVQAGGSLRLSCAASGITFYDNAMGWDRQAPGKEREFVAAISKSGGNTYYADSVKGRFTISRDNAKNTVYLQMNSLKPEDTAVYYCDARTQAFSRKGYGYWGQGTQVTVSS”: the “polyreactivity (PSR sort gate)” value is “high polyreactivity”. Consider “QVQLVESGGGLVQAGGSLRLSCAASGITFYDNAMGWYRQAPGKERELVAAIRSGDSTYYADSVKGRFTISRDNAKNTVYLQMNSLKPEDTAVYYCAARTPWVYYWRFYYWGQGTQVTVSS”, for which the “polyreactivity (PSR sort gate)” value is listed as “high polyreactivity”. Turning to “QVQLVESGGGLVQAGGSLRLSCAASGITFYDNAMGWYRQAPGKERELVAGISYDGDSTYADSVKGRFTISRDNAKNTVYLQMNSLKPEDTAVYYCAALGPYDWLWAGDYWGQGTQVTVSS”, the “polyreactivity (PSR sort gate)” value is on record as “low polyreactivity”. The value for “QVQLVESGGGLVQAGGSLRLSCAASGITFYDNVMGWYRQAPGKERELVAAITSGGSTNYADSVKGRFTISRDNAKNTVYLQMNSLKPEDTAVYYCAAQPRVDYEFPYRYGYWGQGTQVTVSS” was “low polyreactivity”; that for “QVQLVESGGGLVQAGGSLRLSCAASGITFYDYAMGRYRQAPGKERELVAAISGGGITYYADSVKGRFTISRDNAKNTVYLQMNSLKPEDTAVYYCAAVYIAGYGYDYWGQGTQVTVSS” was “low polyreactivity”.

As for “QVQLVESGGGLVQAGGSLRLSCAASGITFYDYAMGWYRQAPGKERELVAAISFSGSRTYYADSVKGRFTISRDNAKNTVYLQMNCLKPEDTAVYYCATDTQDLHGYSWFDYWGQGTQVTVSS”, the “polyreactivity (PSR sort gate)” value is listed as “high polyreactivity”. As for “QVQLVESGGGLVQAGGSLRLSCAASGITFYFYAMGWYRQAPGKERELVAAITSTGTSTYYADSVKGRFTISRDNAKNTVYLQMNSLKPEDSAVYYCAKDQHYPHYQPYWSRYDYWGQGTQVTVSS”, the “polyreactivity (PSR sort gate)” value is “low polyreactivity”.

In the case of “QVQLVESGGGLVQAGGSLRLSCAASGITFYGKAMGWYREAPGKERELGAAITGGGGTNYADSVKGRFTISRDNAKKTVYLQMTSLKPEDTAVYYCNRDYFVWFQRGQYKRGSSWYDNWGQGTQVTVSS”, the “polyreactivity (PSR sort gate)” value was “low polyreactivity”.

“QVQLVESGGGLVQAGGSLRLSCAASGITFYGNAMGRYRQAPGKEREVVAAISSSGGTTYYADSVKGRFTISRDNAKNTVYLQMNSLKPEDTAVYFCNALHPVVYYGTYFNLRRYDYWGQGTQVTVSS”: the “polyreactivity (PSR sort gate)” value was “low polyreactivity”. The value for “QVQLVESGGGLVQAGGSLRLSCAASGITFYGNDMGWYRQAPGKERELVAAISANDGNTYYADSVKGRFTISRDNAKNTVYLQMNSLKPEDTAVYYCAAERYEDYTEYDYWGQGTQVTVSS” was “low polyreactivity”; that for “QVQLVESGGGLVQAGGSLRLSCAASGITFYGYAMGWYRQAPGKERELVARISRSGGSTYYADSVKGRFTISRDNAKNTVYLQMNSLKPEDTAVYYCAAGYGPSGYTRYYWGQGTQVTVSS” was “high polyreactivity”; that for “QVQLVESGGGLVQAGGSLRLSCAASGITFYKYVMGWYRQAPGKERELVARISKGGGSTYYADSVKGRFTISRDYAKNTVYLQMNSLKPEDTAVYYCNARGGYYVRSSAEYDYWGQGTQVTVSS” was “high polyreactivity”.

For the sequence “QVQLVESGGGLVQAGGSLRLSCAASGITFYLYALGWYRQAPGKERELVAAISSSGGRTYYADSVKGRFTISRDNAKNTVYLQMNSLKPEDTAVYYCAARRYGVPPTYDYWGQGTQVTVSS”, the “polyreactivity (PSR sort gate)” value is recorded as “high polyreactivity”. Take “QVQLVESGGGLVQAGGSLRLSCAASGITFYLYDMGWYRQAPGKERELVASITSDGSTDYADSVKGRFTISRDNAKNTVYLQMNSLKPEDTAVYYCNARVTYAWYRFGRSGDDSWGQGTQVTVSS”: the “polyreactivity (PSR sort gate)” value is recorded as “low polyreactivity”. As to “QVQLVESGGGLVQAGGSLRLSCAASGITFYRNAMGWYRQAPGKEMELVAAITWNGGRTYYADSVKGRFTISRDNAKNTVYLQMNSLKPEDTAVYYCAADSGTRNLASYRYYYWGQGTQVTVSS”, the “polyreactivity (PSR sort gate)” value is recorded as “low polyreactivity”.

On to “QVQLVESGGGLVQAGGSLRLSCAASGITFYRNAMGWYRQAPGKERELVAAITWNGGRTYYADSVKGRFTISRDYAKNTVYLQMNSLKPEDSAVYYCAKRYGSTQSRYVYWGQGTQVTVSS”, for which the “polyreactivity (PSR sort gate)” value is recorded as “high polyreactivity”.

Regarding “QVQLVESGGGLVQAGGSLRLSCAASGITFYRYAMGWYRQAPGKDRELVAVISSGGSTNYADSVKGRFTISRDNAKNTVYLQMNSLKPEDTAVFYCNAVSTRFRVRTSDYWGQGTKVTVSS”, the “polyreactivity (PSR sort gate)” value is given as “high polyreactivity”. Turning to “QVQLVESGGGLVQAGGSLRLSCAASGITFYRYAMGWYRQAPGKERELVAAINSSGGNTYYADSVKGRFTISRDNAKNTVYLQMNSLKPEDTAVYYCAADRVSWVKHYYWGQGTQVTVSS”, the “polyreactivity (PSR sort gate)” value was “high polyreactivity”. The value for “QVQLVESGGGLVQAGGSLRLSCAASGITFYRYAMGWYRQAPGKERELVAAISASDGSTYYADSVKGRFTISRDHAKNTVYLQMNSLKPEDTAVYYCNARKGYSYGHWGQGTQVTVSS” was “high polyreactivity”; that for “QVQLVESGGGLVQAGGSLRLSCAASGITFYRYAMGWYRQAPGKERELVAAISRSGGSTYYADSVKGRFTISRDNAKNTVYLQMNSLKPEDTAGYYCAAYILGNRDGYEYWGQGTQVTVSS” was “high polyreactivity”. The value for “QVQLVESGGGLVQAGGSLRLSCAASGITFYSNAMGWYRQAPGKERELVATITRGGSTYYADSVKGRFTISRDNAKNTVYLQMNSLKPEDTAVYYCAADYSYRGREYGYWGQVTQVTVSS” was “low polyreactivity”; that for “QVQLVESGGGLVQAGGSLRLSCAASGITFYVYTMGWYRQAPGKERELVAAINGSGGSTNYADSVKGRFTISRDNAKNTVYLLMNSLKPEDTAVYYCAADWSLRLYDYWGQGTQVTVSS” was “low polyreactivity”. Under “QVQLVESGGGLVQAGGSLRLSCAASGITFYWNDMGWYRQATGKERELVAAIRRTAGSTYYADSVKGRFTISRDNAKNTVYLQMNSLKPEDTAVYYCAASRHFARHRGYYFRYDYWGQGTQVTVSS” stands “high polyreactivity”.

Consider “QVQLVESGGGLVQAGGSLRLSCAASGITFYYYAMGWYRQAPGKERELVASISSVGTTYYADSVKGRFTISGDNAKNTFYLEMNSLKPVDTAVYYCAAVDYVRYYPDEFDYWGQGTQVTVSS”, for which the “polyreactivity (PSR sort gate)” value is “low polyreactivity”. The value for “QVQLVESGGGLVQAGGSLRLSCAASGITFYYYAMGWYTQAPGKERELVAAISDNGSRTYYADSVKGRFTISRDNAQNTVYLQMNSLKPEDTAVYYCAAEGSYGYDYWGQGTQVTVSS” was “high polyreactivity”. In the case of “QVQLVESGGGLVQAGGSLRLSCAASGITIFGYAMGWYRQAPRTERELVAAINYSGDSTYYADSVKGRFTISRDNAKNTVYLQMNSLKPEDTAVYYCAADVRPYYSAYRGRYYYWGQGTQVTVSS”, the “polyreactivity (PSR sort gate)” value is “high polyreactivity”.
